Data taken from US20130205416A1.

Assays:
Assay in all cases: cell-based or functional assay
[1] = biological target: haemagglutinin of A/England/195/09 (H1N1), on PR8 recombinant virus (Influenza A virus A/England/195/09 (H1N1))
[2] = biological target: haemagglutinin of A/Victoria/3/75 (H3N2), on PR8 recombinant virus (Influenza A virus A/Victoria/3/75 (H3N2)), P03435
[3] = biological target: haemagglutinin of influenza virus A/Udorn/72 (H3N2) (Influenza A virus A/Udorn/72 H3N2)

B1: FP3 peptide (…) (peptide)
peptide: WLVFFVIFYFFRRRKK
modifications: not checked
- IC50 of inhibition of infectivity (plaque reduction assay) [1]: 0.066 to 0.1 µM
- IC50 in plaque reduction assay [2]: 16 µM
- IC50 in plaque reduction assay [3]: 16 µM
